Assay [1] deals with rat GALR3 receptor (rat). The experiment in a line: displacement of porcine 125I-galanin, membranes of transiently transfected COS-7 cells.
The target of assay [2] is rat GALR1 receptor (rat). Described as above.
For assay [3], the target named is rat GALR2 receptor (rat) (UniProt O08726). The assay is described as above.
The target in assay [4] is rat GALR3 receptor (rat). The experiment in a line: displacement of porcine 125I-galanin, membranes of stable cell line 293-rGalR3-105.
Assay [5] concerns the target rat GALR3 receptor (rat). Put plainly: displacement of porcine 125I-galanin, rat GalR3 transiently expressed in COS-7 membranes.
The target of assay [6] is human GALR3 receptor (human) (UniProt O60755). Put plainly: displacement of porcine 125I-galanin, membranes of stable LM(tk-) line L-hGalR3-228.
Assay [7] has the same target. The experiment in a line: cell-based or functional assay.
The target in assay [8] is rat GALR3 receptor (rat). The experiment in a line: apparent binding affinity, rat GalR3 in COS-7 (repeats Table 4).

Sequence of human GALR3 receptor (human) (O60755 whole entry, form in doubt): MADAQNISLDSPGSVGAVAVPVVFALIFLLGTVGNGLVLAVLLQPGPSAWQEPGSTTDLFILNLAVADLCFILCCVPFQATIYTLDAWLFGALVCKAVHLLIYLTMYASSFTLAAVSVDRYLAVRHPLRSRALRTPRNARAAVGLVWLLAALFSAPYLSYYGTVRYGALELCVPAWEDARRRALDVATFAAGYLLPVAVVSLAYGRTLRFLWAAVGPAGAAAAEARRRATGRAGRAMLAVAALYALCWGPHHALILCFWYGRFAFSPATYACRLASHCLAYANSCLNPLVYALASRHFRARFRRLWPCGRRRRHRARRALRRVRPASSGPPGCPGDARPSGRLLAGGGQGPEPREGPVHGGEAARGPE
Sequence of rat GALR2 receptor (rat) (O08726 whole entry): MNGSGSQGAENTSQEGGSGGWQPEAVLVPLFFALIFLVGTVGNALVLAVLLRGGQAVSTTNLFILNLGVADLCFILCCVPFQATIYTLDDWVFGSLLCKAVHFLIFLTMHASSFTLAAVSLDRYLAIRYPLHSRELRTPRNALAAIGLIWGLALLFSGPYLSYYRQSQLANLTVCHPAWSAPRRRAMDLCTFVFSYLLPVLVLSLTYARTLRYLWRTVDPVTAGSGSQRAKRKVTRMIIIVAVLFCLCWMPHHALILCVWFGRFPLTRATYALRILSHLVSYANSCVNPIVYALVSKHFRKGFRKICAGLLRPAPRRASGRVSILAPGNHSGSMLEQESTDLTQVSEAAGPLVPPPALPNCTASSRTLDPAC

With M35 (peptide), the Ki was determined as 6.7 nM in assay [1]; 0.33 nM in assay [2]; 0.57 nM in assay [3]; 3.2 nM in assay [4]; 3.7 nM in assay [5]; 7.8 nM in assay [6].

In assay [1], D-Trp2-galanin 1-29 (peptide) showed a Ki above 1000 nM.

As for galanin -7 to +29 (peptide), in assay [7], the Oocyte EC50 (stimulation of GIRKs) was 1910 nM.

As for C7 (peptide), the Oocyte EC50 (stimulation of GIRKs) in assay [7] worked out at 343 nM. For the same substance, the Ki in assay [8] came to 23 nM; in assay [1], 68 nM; in assay [2], 16 nM; in assay [4], 9.6 nM; in assay [5] it was 23 nM.

Substance D-Trp2-galanin 1-16 (peptide) yielded a Ki in assay [1] above 1000 nM.

On to galantide (peptide), for which the Ki in assay [1] is 18 nM; in assay [2], 9.5 nM; in assay [3], 2 nM; in assay [5], 9 nM.

The record behind these values is US20010009766A1.
